The source of these data is patent publication US20170355757A1 (Regeneron, published 2017).

B1: H4H12164P (antibody, human IgG4, V domains shown)
VH: EVQLVESGGGLVRSGGSLRLSCAASGFTFNRYAMTWVRQAPGKGLEWVSAISGSGSSTYYTDSVKGRFTISRDNSKNSVDLQMHSLRVEDTAIYYCARGTTVTTGYGMDVWGQGTTVTVSS
VL: DIQMTQSPSSLSASVGDRVTFTCQASQDITNSLNWYQQKPGRAPKLLIYDASYLKAGVPSRFSGSGSGTDFTFTISSLQPEDIATYYCQQYDDLPYTFGQGTKLEIK
B2: H4H12167P (antibody, human IgG4, V domains shown)
VH: QVQLVESGGGLVKPGGSLRLSCAASGFTFSDSYMSWIRQAPGKGLEWISYIGSSGNTFYYADSVKGRFTISRDNANNLLYLQMTSLRAEDTAVYYCAREEGDFWSAVDSWGQGTLVTVSS
VL: DIQLTQSPSFLSASVGDRVTITCWASQGISSYLAWYQQKPGKAPKLLIHTASTLQSGVPSRFSGSGSGTEFTLTISNLQPEDFATYYCQQLNSYPFTFGPGTKVDIK
B3: H4H12159P (antibody, human IgG4, V domains shown)
VH: QVQLVESGGGVVQPGRSLRLSCGASGFTFSTYGMHWVRQAPGKGLEWVAVIWDDGNNKYYADSVKGRFTISRDNSKNTLYLQMNSLRAEDTAVYYCARDSEVAPVGDYWGQGTLVTVSS
VL: DIQMTQSPSTLSASVGDRVTIICRASQSINRWLAWYQQKPGKAPKLLIYKASSLESGVPSRFSGSGSGTEFTLTISSLQPDDFAAYYCQQYNDYSYTFGQGTKLEIK
B4: H4H12175P (antibody, human IgG4, V domains shown)
VH: EVQLVESGGGVVQPGGSLRLSCAASGFTFNDYAMHWVRQAPGKGLEWVSLISGDGGNTYYADSVKGRLTISRDNSKNSLYLQMNSLRTEDTALYYCAKDKGWNFGYFDLWGRGTLVTVSS
VL: DIQMTQSPSSLSTSVGDRVTITCRASQNIDTYLNWYQQKPGKAPKLLIYDASSLQSGVPSRFSGSGSGTDFTLTITSLQPEDFATYYCQQNDNILHPLTFGGGTKVEIK
B5: H4H12163P (antibody, human IgG4, V domains shown)
VH: EVQLVESGGDLVQPGGSLRLSCAASGFTFSSYAMNWVRQGPGKGLEWVSAISGRGDSTYYADSVKGRLTISRDNSKNTLYLQMNSLRAEDTAVYYCVKEGEQLVYWYFDLWGRGTLVTVSS
VL: DIQMTQSPSSLSASVGDRVTITCRASQTISNFLHWYQQKPGKAPKLLIYAASSLQSGVPSRFSGSGSGTDFTLTISSLQPEDFSTYFCQQSYTTPLTFGGGTKVEIK
B6: H4H12176P2 (antibody, human IgG4, V domains shown)
VH: EVQLVESGGGLVQPGGSLRLSCAASGFHSNRYWMDWVRQAPGKGLEWVANIKQDGSEENYVDSVKGRFTISRDNAKNSLYLQMNSLRAEDTAVYYCARDRSTSWVPYWFFDLWGRGTLVTVSS
VL: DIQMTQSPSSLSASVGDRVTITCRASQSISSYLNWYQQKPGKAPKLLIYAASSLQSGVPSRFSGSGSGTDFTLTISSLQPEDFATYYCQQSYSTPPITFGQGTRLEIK

The target in the first assay is T1, Human C5 (human, UniProt P01031 19-1676).
T1 construct: The natural protein has a beta and an alpha chain; also called complement factor 5; complement component 5
Nature of the assay: SPR, mAb captured by anti-hFc, 25C. How it is done:
(§1) Equilibrium dissociation constants (KD values) for C5 binding to purified anti-C5 antibodies were determined using a real-time surface plasmon resonance biosensor assay on a Biacore T200 instrument. The Biacore sensor surface was derivatized by amine coupling with a monoclonal mouse anti-human Fc antibody (GE Healthcare, # BR-1008-39) to capture anti-C5 antibodies expressed with human Fc constant regions. Biacore binding studies were conducted in HBST running buffer (0.01M HEPES pH 7.4, 0.15M NaCl, 3 mM EDTA, 0.05% v/v Surfactant P20).
(§2) Human C5 was obtained from a commercial source (EMD). Other C5 reagents were expressed with a C-terminal myc-myc-hexahistidine tag (subsequently referred to as C5-mmh). […] Association of all the C5 reagents to each of the captured monoclonal antibodies was monitored for 3 minutes and their dissociation in HBST running buffer was monitored for 8 minutes. All the binding kinetics experiments were performed at either 25° C. or 37° C. Kinetic association (kₐ) and dissociation (kd) rate constants were determined by fitting the real-time sensorgrams to a 1:1 binding model using Scrubber 2.0c curve fitting software. Binding dissociation equilibrium constants (KD) and dissociative half-lives (t %) were calculated from the kinetic rate constants as: KD (M)=kd/kₐ and t_{1/2} (min)=In2/(60×kd)
Consider B1, for which the “100 nM Human C5 Bound (RU)” value is 103 RU, the dissociation constant Kd stood at 0.302 nM, the koff amounted to 8.84e-05 s⁻¹ and the kon amounted to 292000 M⁻¹ s⁻¹. Moreover, the t½ is 131 min.
For B2, in that order: 116 RU, 0.121 nM, 0.000131 s⁻¹, 1.09e+06 M⁻¹ s⁻¹ and 88 min.
With B3, the “100 nM Human C5 Bound (RU)” value was 118 RU, the Kd was determined as 0.0731 nM, the off-rate (koff) is 7.13e-05 s⁻¹ and the on-rate (kon) came out at 975000 M⁻¹ s⁻¹. The t½ turned out to be 162 min.
For B4, in that order: 100 RU, 0.91 nM, 0.000196 s⁻¹, 216000 M⁻¹ s⁻¹ and 59 min.
Turning to B5, the “100 nM Human C5 Bound (RU)” value worked out at 108 RU, the dissociation constant (Kd) turned out to be 0.324 nM, the koff turned out to be 0.000208 s⁻¹ and the on-rate (kon) turned out to be 643000 M⁻¹ s⁻¹. For the same molecule, the t½ was 55 min.
In the same order, the values of B6 are 96 RU, 0.201 nM, 6.75e-05 s⁻¹, 336000 M⁻¹ s⁻¹ and 171 min.

In a further assay the target is T2, monkey C5-mmh (monkey, UniProt P01031 19-1676 (human entry), limits assumed).
T2 construct: Expressed with a C-terminal myc-myc-hexahistidine tag
T2 chain: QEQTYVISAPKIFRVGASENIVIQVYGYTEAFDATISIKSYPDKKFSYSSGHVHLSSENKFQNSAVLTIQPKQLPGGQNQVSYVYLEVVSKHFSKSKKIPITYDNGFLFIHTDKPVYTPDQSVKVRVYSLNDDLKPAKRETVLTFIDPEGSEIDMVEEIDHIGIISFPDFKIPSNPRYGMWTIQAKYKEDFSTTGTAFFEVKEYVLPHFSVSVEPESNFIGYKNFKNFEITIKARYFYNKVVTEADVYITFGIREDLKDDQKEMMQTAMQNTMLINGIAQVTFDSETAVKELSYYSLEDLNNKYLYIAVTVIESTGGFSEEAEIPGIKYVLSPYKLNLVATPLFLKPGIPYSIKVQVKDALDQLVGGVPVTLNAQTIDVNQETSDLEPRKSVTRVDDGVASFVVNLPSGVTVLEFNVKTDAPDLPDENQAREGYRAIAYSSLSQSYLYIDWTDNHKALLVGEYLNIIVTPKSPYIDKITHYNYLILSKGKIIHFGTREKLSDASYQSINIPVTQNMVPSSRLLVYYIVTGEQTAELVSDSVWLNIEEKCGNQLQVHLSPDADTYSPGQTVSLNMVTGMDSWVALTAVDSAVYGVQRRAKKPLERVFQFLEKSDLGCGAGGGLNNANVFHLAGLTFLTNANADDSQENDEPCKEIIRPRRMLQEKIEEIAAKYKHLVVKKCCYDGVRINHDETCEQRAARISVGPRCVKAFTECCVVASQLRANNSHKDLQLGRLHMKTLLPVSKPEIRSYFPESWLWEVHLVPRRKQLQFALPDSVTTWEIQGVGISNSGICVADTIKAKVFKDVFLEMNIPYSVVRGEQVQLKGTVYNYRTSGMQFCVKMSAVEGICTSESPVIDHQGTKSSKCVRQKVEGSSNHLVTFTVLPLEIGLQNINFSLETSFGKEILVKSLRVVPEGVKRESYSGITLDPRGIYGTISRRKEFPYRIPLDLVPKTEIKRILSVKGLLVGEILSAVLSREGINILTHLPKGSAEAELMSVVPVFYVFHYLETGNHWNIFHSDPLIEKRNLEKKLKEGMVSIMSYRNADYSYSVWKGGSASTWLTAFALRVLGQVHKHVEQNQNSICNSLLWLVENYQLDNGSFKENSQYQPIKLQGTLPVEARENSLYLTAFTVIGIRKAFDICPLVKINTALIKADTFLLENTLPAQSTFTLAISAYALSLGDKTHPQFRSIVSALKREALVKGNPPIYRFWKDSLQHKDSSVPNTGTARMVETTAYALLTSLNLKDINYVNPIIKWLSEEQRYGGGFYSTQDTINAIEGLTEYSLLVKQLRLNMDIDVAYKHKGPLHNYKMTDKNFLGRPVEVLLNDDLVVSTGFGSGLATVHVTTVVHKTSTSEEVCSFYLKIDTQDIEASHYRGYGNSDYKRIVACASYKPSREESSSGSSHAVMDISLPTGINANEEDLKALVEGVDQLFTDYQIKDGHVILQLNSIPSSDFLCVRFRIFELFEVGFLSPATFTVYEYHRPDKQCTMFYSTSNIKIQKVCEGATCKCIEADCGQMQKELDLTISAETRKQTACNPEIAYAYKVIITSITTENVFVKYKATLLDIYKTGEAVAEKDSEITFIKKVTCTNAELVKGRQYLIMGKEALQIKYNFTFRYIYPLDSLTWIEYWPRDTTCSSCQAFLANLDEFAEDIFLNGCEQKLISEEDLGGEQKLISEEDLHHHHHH
Nature of the assay: SPR, mAb captured by anti-hFc, 25C. On the procedure:
as §1, §2
Take B1: the “100 nM monkey C5-mmh Bound (RU)” value is 66 RU; the affinity, expressed as Kd, was 12 nM; the koff was 0.00153 s⁻¹; the kon was determined as 127000 M⁻¹ s⁻¹. Besides, the “t1/2” value is 8 min.
B2: the “100 nM monkey C5-mmh Bound (RU)” value stood at 111 RU, the Kd is 0.315 nM, the koff stood at 0.000132 s⁻¹ and the association rate constant (kon) was determined as 419000 M⁻¹ s⁻¹. The “t1/2” value was 88 min.
In the same order, the values of B3 are 116 RU, 0.133 nM, 4.69e-05 s⁻¹, 354000 M⁻¹ s⁻¹ and 246 min.
B4: the “100 nM monkey C5-mmh Bound (RU)” value stood at 59 RU, binding was put at a Kd of 25.7 nM, the off-rate constant (koff) came out at 0.00165 s⁻¹ and the kon is 64200 M⁻¹ s⁻¹. In addition, the “t1/2” value was 7 min.
For B5, in that order: 98 RU, 2.49 nM, 0.000775 s⁻¹, 311000 M⁻¹ s⁻¹ and 15 min.
In the case of B6, the “100 nM monkey C5-mmh Bound (RU)” value was determined as 69 RU, the equilibrium dissociation constant (Kd) came out at 0.322 nM, the off-rate constant (koff) was found to be 5.88e-05 s⁻¹ and the kon worked out at 182000 M⁻¹ s⁻¹. The “t1/2” value was found to be 196 min.

In the next assay the target is T1, Human C5. Nature of the assay: SPR, mAb captured by anti-hFc, 37C. How it is done: as §1, §2
Regarding B1, the “100 nM Human C5 Bound (RU)” value was 140 RU, the dissociation constant Kd worked out at 0.323 nM, the koff came to 0.000128 s⁻¹ and the kon turned out to be 396000 M⁻¹ s⁻¹. Also, the t½ was 90 min.
In the same order, the values of B2 are 153 RU, 0.295 nM, 0.000381 s⁻¹, 1.29e+06 M⁻¹ s⁻¹ and 30 min.
In the same order, the values of B3 are 145 RU, 0.103 nM, 0.000107 s⁻¹, 1.04e+06 M⁻¹ s⁻¹ and 108 min.
For B4, in that order: 132 RU, 2.15 nM, 0.000637 s⁻¹, 296000 M⁻¹ s⁻¹ and 18 min.
For the molecule B5, the “100 nM Human C5 Bound (RU)” value is 139 RU; the affinity, expressed as Kd, was 0.729 nM; the off-rate constant (koff) was 0.000665 s⁻¹; the on-rate (kon) was determined as 911000 M⁻¹ s⁻¹. The same molecule came in with a t½ of 17 min.
On to B6, for which the “100 nM Human C5 Bound (RU)” value worked out at 71 RU, the Kd was determined as 1.59 nM, the off-rate (koff) was 0.000234 s⁻¹ and the on-rate (kon) worked out at 147000 M⁻¹ s⁻¹. Besides, the t½ came to 49 min.
